We go through 21 molecules from US20250353912A1 (NEW YORK UNIVERSITY, published 2025).

Test [1] has as its target T1, HLA-A*01:01 in complex with the BTK peptide … conjugated with Ibrutinib (human, ibrutinib covalently bound to Cys).
T1 construct: also called HLA-A*01:01_BTK-Ibrutinib
The experiment in a line: phage display selection; MBBA.

Test [2] addresses T2, HLA-A*02:01 in complex with the EGFR peptide … conjugated with osimertinib (human, osimertinib covalently bound to Cys).
T2 construct: also called HLA-A*02:01_EGFR-osimertinib; osimertinib-EGFR/HLA-A*02
The experiment in a line: yeast display.

B1: IBA1-4 (antibody, V domains shown)
VH: EVQLVESGGGLVQPGGSLRLSCAASGFTVSSSSIHWVRQAPGKGLEWVASIYSYSGSTYYADSVKGRFTISADTSKNTAYLQMNSLRAEDTAVYYCARQYSSSYYVWPGMDYWGQGTLVTVSS
VL: DIQMTQSPSSLSASVGDRVTITCRASQSVSSAVAWYQQKPGKAPKLLIYSASSLYSGVPSRFSGSRSGTDFTLTISSLQPEDFATYYCQQYHYWASLITFGQGTKVEIKR
notes: phage-display clone
For B1, the binding result in test [1] is “binds”.

B2: EO_Q01 (scFv, V domains shown)
VH: EVQLVESGGGLVQPGGSLRLSCAASGFTISSSYIHWVRQAPGKGLEWVAYISPSYGSTSYADSVKGRFTISADTSKNTAYLQMNSLRAEDTAVYYCARELVTMTADYWGQGTLVTVSS
VL: DIQMTQSPSSLSASVGDRVTITCRASQSVSSAVAWYQQKPGKAPKLLIYSASSLYSGVPSRFSGSRSGTDFTLTISSLQPEDFATYYCQQYSHWPITFGQGTKVEIKR
notes: yeast-display scFv
Turning to B2, the binding result in test [2] was “binds”.

B3: EO_Q18 (scFv, V domains shown)
VH: EVQLVESGGGLVQPGGSLRLSCAASGFTISSSYIHWVRQAPGKGLEWVAYISPSYGSTSYADSVKGRFTISADTSKNTAYLQMNSLRAEDTAVYYCAREYVTMALDYWGQGTLVTVSS
VL: DIQMTQSPSSLSASVGDRVTITCRASQSVSSAVAWYQQKPGKAPKLLIYSASSLYSGVPSRFSGSRSGTDFTLTISSLQPEDFATYYCQQYSAWPETFGQGTKVEIKR
notes: yeast-display scFv
As to B3, the binding result in test [2] is “binds”.

B4: EO_Q12 (scFv, V domains shown)
VH: EVQLVESGGGLVQPGGSLRLSCAASGFTISSSYIHWVRQAPGKGLEWVAYISPSYGSTSYADSVKGRFTISADTSKNTAYLQMNSLRAEDTAVYYCARELTTMSIDYWGQGTLVTVSS
VL: DIQMTQSPSSLSASVGDRVTITCRASQSVSSAVAWYQQKPGKAPKLLIYSASSLYSGVPSRFSGSRSGTDFTLTISSLQPEDFATYYCQQYASWPITFGQGTKVEIKR
notes: yeast-display scFv
As to B4, the binding result in test [2] was “binds”.

B5: EO_Q04 (scFv, V domains shown)
VH: EVQLVESGGGLVQPGGSLRLSCAASGFTISSSYIHWVRQAPGKGLEWVAYISPSYGSTSYADSVKGRFTISADTSKNTAYLQMNSLRAEDTAVYYCARESVTMTKDYWGQGTLVTVSS
VL: DIQMTQSPSSLSASVGDRVTITCRASQSVSSAVAWYQQKPGKAPKLLIYSASSLYSGVPSRFSGSRSGTDFTLTISSLQPEDFATYYCQQYSDWPITFGQGTKVEIKR
notes: yeast-display scFv
For B5, the binding result in test [2] is recorded as “binds”.

B6: EO_Q15 (scFv, V domains shown)
VH: EVQLVESGGGLVQPGGSLRLSCAASGFTISSSYIHWVRQAPGKGLEWVAYISPSYGSTSYADSVKGRFTISADTSKNTAYLQMNSLRAEDTAVYYCARELIEMTTDYWGQGTLVTVSS
VL: DIQMTQSPSSLSASVGDRVTITCRASQSVSSAVAWYQQKPGKAPKLLIYSASSLYSGVPSRFSGSRSGTDFTLTISSLQPEDFATYYCQQYSHWPITFGQGTKVEIKR
notes: yeast-display scFv
B6: the binding result in test [2] is on record as “binds”.

B7: EO_Q02 (scFv, V domains shown)
VH: EVQLVESGGGLVQPGGSLRLSCAASGFTISSSYIHWVRQAPGKGLEWVAYISPSYGSTSYADSVKGRFTISADTSKNTAYLQMNSLRAEDTAVYYCAREYTTMSIDYWGQGTLVTVSS
VL: DIQMTQSPSSLSASVGDRVTITCRASQSVSSAVAWYQQKPGKAPKLLIYSASSLYSGVPSRFSGSRSGTDFTLTISSLQPEDFATYYCQQYSAWPETFGQGTKVEIKR
notes: yeast-display scFv
As for B7, the binding result in test [2] is recorded as “binds”.

B8: EO_Q13 (scFv, V domains shown)
VH: EVQLVESGGGLVQPGGSLRLSCAASGFTISSSYIHWVRQAPGKGLEWVAYISPSYGSTSYADSVKGRFTISADTSKNTAYLQMNSLRAEDTAVYYCARELTTMTADYWGQGTLVTVSS
VL: DIQMTQSPSSLSASVGDRVTITCRASQSVSSAVAWYQQKPGKAPKLLIYSASSLYSGVPSRFSGSRSGTDFTLTISSLQPEDFATYYCQQYSHWPITFGQGTKVEIKR
notes: yeast-display scFv
Take B8: the binding result in test [2] is recorded as “binds”.

B9: EO_Q10 (scFv, V domains shown)
VH: EVQLVESGGGLVQPGGSLRLSCAASGFTISSSYIHWVRQAPGKGLEWVAYISPSYGSTSYADSVKGRFTISADTSKNTAYLQMNSLRAEDTAVYYCARELIEMTPDYWGQGTLVTVSS
VL: DIQMTQSPSSLSASVGDRVTITCRASQSVSSAVAWYQQKPGKAPKLLIYSASSLYSGVPSRFSGSRSGTDFTLTISSLQPEDFATYYCQQYSGWPITFGQGTKVEIKR
notes: yeast-display scFv
As to B9, the binding result in test [2] is “binds”.

B10: EO_Q05 (scFv, V domains shown)
VH: EVQLVESGGGLVQPGGSLRLSCAASGFTISSSYIHWVRQAPGKGLEWVAYISPSYGSTSYADSVKGRFTISADTSKNTAYLQMNSLRAEDTAVYYCAREEVTMSIDYWGQGTLVTVSS
VL: DIQMTQSPSSLSASVGDRVTITCRASQSVSSAVAWYQQKPGKAPKLLIYSASSLYSGVPSRFSGSRSGTDFTLTISSLQPEDFATYYCQQYAEWPITFGQGTKVEIKR
notes: yeast-display scFv
With B10, in test [2], the binding result is recorded as “binds”.

B11: EO_Q07 (scFv, V domains shown)
VH: EVQLVESGGGLVQPGGSLRLSCAASGFTISSSYIHWVRQAPGKGLEWVAYISPSYGSTSYADSVKGRFTISADTSKNTAYLQMNSLRAEDTAVYYCARELTTMSIDYWGQGTLVTVSS
VL: DIQMTQSPSSLSASVGDRVTITCRASQSVSSAVAWYQQKPGKAPKLLIYSASSLYSGVPSRFSGSRSGTDFTLTISSLQPEDFATYYCQQYAKWPITFGQGTKVEIKR
notes: yeast-display scFv
With B11, in test [2], the binding result is “binds”.

B12: EO_Q08 (scFv, V domains shown)
VH: EVQLVESGGGLVQPGGSLRLSCAASGFTISSSYIHWVRQAPGKGLEWVAYISPSYGSTSYADSVKGRFTISADTSKNTAYLQMNSLRAEDTAVYYCARELTEMTTDYWGQGTLVTVSS
VL: DIQMTQSPSSLSASVGDRVTITCRASQSVSSAVAWYQQKPGKAPKLLIYSASSLYSGVPSRFSGSRSGTDFTLTISSLQPEDFATYYCQQYSSWPITFGQGTKVEIKR
notes: yeast-display scFv
B12: the binding result in test [2] is listed as “binds”.

B13: EO_Q11 (scFv, V domains shown)
VH: EVQLVESGGGLVQPGGSLRLSCAASGFTISSSYIHWVRQAPGKGLEWVAYISPSYGSTSYADSVKGRFTISADTSKNTAYLQMNSLRAEDTAVYYCARELVTMTIDYWGQGTLVTVSS
VL: DIQMTQSPSSLSASVGDRVTITCRASQSVSSAVAWYQQKPGKAPKLLIYSASSLYSGVPSRFSGSRSGTDFTLTISSLQPEDFATYYCQQYSGWPITFGQGTKVEIKR
notes: yeast-display scFv
For the molecule B13, the binding result in test [2] was “binds”.

B14: EO_Q24 (scFv, V domains shown)
VH: EVQLVESGGGLVQPGGSLRLSCAASGFTISSSYIHWVRQAPGKGLEWVAYISPSYGSTSYADSVKGRFTISADTSKNTAYLQMNSLRAEDTAVYYCAREYVTMALDYWGQGTLVTVSS
VL: DIQMTQSPSSLSASVGDRVTITCRASQSVSSAVAWYQQKPGKAPKLLIYSASSLYSGVPSRFSGSRSGTDFTLTISSLQPEDFATYYCQQYSEWPETFGQGTKVEIKR
notes: yeast-display scFv
As to B14, the binding result in test [2] is listed as “binds”.

B15: EO_Q20 (scFv, V domains shown)
VH: EVQLVESGGGLVQPGGSLRLSCAASGFTISSSYIHWVRQAPGKGLEWVAYISPSYGSTSYADSVKGRFTISADTSKNTAYLQMNSLRAEDTAVYYCAREEVTMTPDYWGQGTLVTVSS
VL: DIQMTQSPSSLSASVGDRVTITCRASQSVSSAVAWYQQKPGKAPKLLIYSASSLYSGVPSRFSGSRSGTDFTLTISSLQPEDFATYYCQQYSDWPITFGQGTKVEIKR
notes: yeast-display scFv
Consider B15, for which the binding result in test [2] is recorded as “binds”.

B16: EO_Q03 (scFv, V domains shown)
VH: EVQLVESGGGLVQPGGSLRLSCAASGFTISSSYIHWVRQAPGKGLEWVAYISPSYGSTSYADSVKGRFTISADTSKNTAYLQMNSLRAEDTAVYYCARESVTMSADYWGQGTLVTVSS
VL: DIQMTQSPSSLSASVGDRVTITCRASQSVSSAVAWYQQKPGKAPKLLIYSASSLYSGVPSRFSGSRSGTDFTLTISSLQPEDFATYYCQQYSAWPITFGQGTKVEIKR
notes: yeast-display scFv
For B16, in test [2], the binding result is on record as “binds”.

B17: EO_Q09 (scFv, V domains shown)
VH: EVQLVESGGGLVQPGGSLRLSCAASGFTISSSYIHWVRQAPGKGLEWVAYISPSYGSTSYADSVKGRFTISADTSKNTAYLQMNSLRAEDTAVYYCAREEVTMTADYWGQGTLVTVSS
VL: DIQMTQSPSSLSASVGDRVTITCRASQSVSSAVAWYQQKPGKAPKLLIYSASSLYSGVPSRFSGSRSGTDFTLTISSLQPEDFATYYCQQYSHWPITFGQGTKVEIKR
notes: yeast-display scFv
Turning to B17, in test [2], the binding result is “binds”.

B18: EO_Q14 (scFv, V domains shown)
VH: EVQLVESGGGLVQPGGSLRLSCAASGFTISSSYIHWVRQAPGKGLEWVAYISPSYGSTSYADSVKGRFTISADTSKNTAYLQMNSLRAEDTAVYYCARESITMSPDYWGQGTLVTVSS
VL: DIQMTQSPSSLSASVGDRVTITCRASQSVSSAVAWYQQKPGKAPKLLIYSASSLYSGVPSRFSGSRSGTDFTLTISSLQPEDFATYYCQQYSSWPITFGQGTKVEIKR
notes: yeast-display scFv
As to B18, in test [2], the binding result is on record as “binds”.

B19: EO_Q06 (scFv, V domains shown)
VH: EVQLVESGGGLVQPGGSLRLSCAASGFTISSSYIHWVRQAPGKGLEWVAYISPSYGSTSYADSVKGRFTISADTSKNTAYLQMNSLRAEDTAVYYCARESITMTKDYWGQGTLVTVSS
VL: DIQMTQSPSSLSASVGDRVTITCRASQSVSSAVAWYQQKPGKAPKLLIYSASSLYSGVPSRFSGSRSGTDFTLTISSLQPEDFATYYCQQYSHWPITFGQGTKVEIKR
notes: yeast-display scFv
For B19, in test [2], the binding result is listed as “binds”.

B20: EO_Q23 (scFv, V domains shown)
VH: EVQLVESGGGLVQPGGSLRLSCAASGFTISSSYIHWVRQAPGKGLEWVAYISPSYGSTSYADSVKGRFTISADTSKNTAYLQMNSLRAEDTAVYYCAREYVTMALDYWGQGTLVTVSS
VL: DIQMTQSPSSLSASVGDRVTITCRASQSVSSAVAWYQQKPGKAPKLLIYSASSLYSGVPSRFSGSRSGTDFTLTISSLQPEDFATYYCQQYSHWPETFGQGTKVEIKR
notes: yeast-display scFv
For B20, the binding result in test [2] is “binds”.

B21: EO_Q22 (scFv, V domains shown)
VH: EVQLVESGGGLVQPGGSLRLSCAASGFTISSSYIHWVRQAPGKGLEWVAYISPSYGSTSYADSVKGRFTISADTSKNTAYLQMNSLRAEDTAVYYCAREYVTMALDYWGQGTLVTVSS
VL: DIQMTQSPSSLSASVGDRVTITCRASQSVSSAVAWYQQKPGKAPKLLIYSASSLYSGVPSRFSGSRSGTDFTLTISSLQPEDFATYYCQQYSHWPITFGQGTKVEIKR
notes: yeast-display scFv
For the molecule B21, the binding result in test [2] is given as “binds”.
